Experimental findings from paper PMC10616196, “A marine cryptochrome with an inverse photo-oligomerization mechanism” (Nature Communications, 2023) are described below.

By stoichiometry N is commonly meant a count of units in the complex or per binding partner.

Test [1] addresses T1, PdLCry (L-CRY) (Platynereis dumerilii, UniProt Z9ZPX6J9J5).
T1 construct: full length, N-terminal His6 tag, expressed in Sf9 insect cells (pCoofy27, baculovirus); 565 residues, model 31-556; homodimer in dark, monomer under blue light
T1 sequence (Z9ZPX6J9J5 1-565): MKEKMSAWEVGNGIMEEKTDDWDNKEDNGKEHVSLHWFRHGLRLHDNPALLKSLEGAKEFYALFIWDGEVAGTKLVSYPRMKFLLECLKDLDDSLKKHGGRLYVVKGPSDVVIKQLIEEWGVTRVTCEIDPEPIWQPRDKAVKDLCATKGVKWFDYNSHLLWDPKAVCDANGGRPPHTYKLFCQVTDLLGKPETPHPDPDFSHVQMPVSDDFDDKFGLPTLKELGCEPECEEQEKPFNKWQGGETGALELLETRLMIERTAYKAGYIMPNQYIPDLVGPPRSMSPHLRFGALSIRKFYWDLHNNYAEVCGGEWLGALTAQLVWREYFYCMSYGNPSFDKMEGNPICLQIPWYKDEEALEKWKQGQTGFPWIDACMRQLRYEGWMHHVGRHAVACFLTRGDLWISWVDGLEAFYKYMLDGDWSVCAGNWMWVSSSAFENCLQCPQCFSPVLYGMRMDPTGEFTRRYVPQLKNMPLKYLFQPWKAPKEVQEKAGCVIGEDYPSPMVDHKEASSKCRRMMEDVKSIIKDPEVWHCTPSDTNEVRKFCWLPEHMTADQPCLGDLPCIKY
The test is described as follows: cryo-EM structure of the complex, […] A. Format: binding. As to conditions: dark state, far-red light; pH 8.0; homodimer; near stoichiometric FAD occupancy; non-covalent.

The target of test [2] is T2, PdLCry (L-CRY) (Platynereis dumerilii, UniProt Z9ZPX6J9J5, Y352A).
T2 construct: full length, N-terminal His6 tag, expressed in Sf9 insect cells (pCoofy27, baculovirus); 565 residues, model 31-556; homodimer in dark, monomer under blue light
T2 sequence (Z9ZPX6J9J5 1-565 Y352A): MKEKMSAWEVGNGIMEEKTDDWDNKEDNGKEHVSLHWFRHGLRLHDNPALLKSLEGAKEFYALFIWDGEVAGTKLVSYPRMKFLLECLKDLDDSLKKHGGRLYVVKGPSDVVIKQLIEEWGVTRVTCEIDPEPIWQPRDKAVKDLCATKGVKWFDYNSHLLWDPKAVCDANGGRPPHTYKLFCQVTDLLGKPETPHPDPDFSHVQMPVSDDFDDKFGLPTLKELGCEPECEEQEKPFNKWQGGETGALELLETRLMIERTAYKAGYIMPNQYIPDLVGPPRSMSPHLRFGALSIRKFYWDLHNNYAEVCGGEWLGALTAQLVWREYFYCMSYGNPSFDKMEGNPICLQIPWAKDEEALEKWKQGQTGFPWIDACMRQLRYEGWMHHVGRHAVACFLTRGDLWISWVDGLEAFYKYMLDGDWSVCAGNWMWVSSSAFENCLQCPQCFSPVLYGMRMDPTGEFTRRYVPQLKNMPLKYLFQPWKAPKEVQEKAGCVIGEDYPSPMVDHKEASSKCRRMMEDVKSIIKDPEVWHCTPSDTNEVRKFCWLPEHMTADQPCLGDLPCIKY
The test is described as follows: UV/Vis spectroscopy of FAD photoreduction. Format: binding. As to conditions: naturalistic sunlight, on ice; pH 8.0; co-purified FAD.

Test [3] concerns the target T3, PdLCry (L-CRY) (Platynereis dumerilii, UniProt Z9ZPX6J9J5, Y352D).
T3 construct: full length, N-terminal His6 tag, expressed in Sf9 insect cells (pCoofy27, baculovirus); 565 residues, model 31-556; homodimer in dark, monomer under blue light
T3 sequence (Z9ZPX6J9J5 1-565 Y352D): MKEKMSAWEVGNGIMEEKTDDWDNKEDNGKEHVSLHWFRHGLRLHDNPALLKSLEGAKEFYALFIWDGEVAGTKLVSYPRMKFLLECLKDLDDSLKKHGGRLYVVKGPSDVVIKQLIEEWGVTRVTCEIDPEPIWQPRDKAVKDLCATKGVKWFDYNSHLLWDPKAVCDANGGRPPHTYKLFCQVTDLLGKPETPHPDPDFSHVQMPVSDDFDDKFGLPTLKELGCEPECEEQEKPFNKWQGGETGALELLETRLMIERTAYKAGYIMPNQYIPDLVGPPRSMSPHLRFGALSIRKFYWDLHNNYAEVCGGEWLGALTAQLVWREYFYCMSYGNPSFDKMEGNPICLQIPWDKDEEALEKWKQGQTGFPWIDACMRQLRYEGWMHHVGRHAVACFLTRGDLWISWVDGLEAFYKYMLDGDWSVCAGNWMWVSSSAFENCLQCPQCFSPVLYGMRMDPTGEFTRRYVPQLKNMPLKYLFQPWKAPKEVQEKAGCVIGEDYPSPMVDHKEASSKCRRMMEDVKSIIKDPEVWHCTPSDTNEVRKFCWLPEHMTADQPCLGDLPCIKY
The test is described as follows: UV/Vis spectroscopy of FAD photoreduction. Conditions: naturalistic sunlight, on ice; pH 8.0; co-purified FAD. Type of test: binding.

The target of test [4] is Platynereis dumerilii L-CRY (PdLCry), wildtype (Platynereis dumerilii). In words: SEC; analytical SEC with inline UV/Vis, Superdex 200 Increase 5/150 GL, far-red light (dark) conditions; 7 µL at 5 mg mL^-1; 25 mM Bis-tris propane pH 8.0, 150 mM NaCl, 1 mM TCEP.
The target is the same in test [5]. The test is described as follows: cryo-EM structure; dark state: vitrified under far-red light; 0.7 mg mL^-1 in 25 mM Bis-tris propane pH 8.0, 150 mM NaCl, 1 mM TCEP, 0.01% fluorinated octyl maltoside; 2D classification and C2 refinement.
Test [6] has the same target. In words: cryo-EM structure; blue light state: grids illuminated for 30 s with a 455 nm LED, vitrified within less than 5 s; 0.7 mg mL^-1 in 25 mM Bis-tris propane pH 8.0, 150 mM NaCl, 1 mM TCEP; 2D classification, C1 map filtered to 8 Å.
The target in a further test is T4, PdLCry^Y352A (Platynereis dumerilii).
T4 chain: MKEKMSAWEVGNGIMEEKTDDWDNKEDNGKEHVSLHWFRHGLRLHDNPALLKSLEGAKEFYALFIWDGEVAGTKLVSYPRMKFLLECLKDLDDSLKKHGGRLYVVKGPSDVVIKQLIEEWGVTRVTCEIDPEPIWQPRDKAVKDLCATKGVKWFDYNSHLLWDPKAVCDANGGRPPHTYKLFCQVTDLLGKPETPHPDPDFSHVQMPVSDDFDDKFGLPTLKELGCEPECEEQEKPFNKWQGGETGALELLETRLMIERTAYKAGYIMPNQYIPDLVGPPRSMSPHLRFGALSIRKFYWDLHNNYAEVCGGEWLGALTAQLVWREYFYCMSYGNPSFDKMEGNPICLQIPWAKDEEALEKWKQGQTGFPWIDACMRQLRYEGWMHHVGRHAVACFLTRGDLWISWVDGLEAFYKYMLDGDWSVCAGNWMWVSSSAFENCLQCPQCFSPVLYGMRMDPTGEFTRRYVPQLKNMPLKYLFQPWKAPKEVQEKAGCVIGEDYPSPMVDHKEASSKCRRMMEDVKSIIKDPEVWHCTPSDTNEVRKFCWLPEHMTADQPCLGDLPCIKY
In words: SEC; final SEC step of the purification in dark or dim red light (Superdex S200 10/300 GL or HiLoad S200 16/60; 25 mM Bis-tris propane pH 8.0, 150 mM NaCl, 5% glycerol, 1 mM TCEP). Conditions: both partners purified. Background: Size exclusion chromatography separates by hydrodynamic size, large species first.

The next test deals with T5, PdLCry^Y352D (Platynereis dumerilii).
T5 chain: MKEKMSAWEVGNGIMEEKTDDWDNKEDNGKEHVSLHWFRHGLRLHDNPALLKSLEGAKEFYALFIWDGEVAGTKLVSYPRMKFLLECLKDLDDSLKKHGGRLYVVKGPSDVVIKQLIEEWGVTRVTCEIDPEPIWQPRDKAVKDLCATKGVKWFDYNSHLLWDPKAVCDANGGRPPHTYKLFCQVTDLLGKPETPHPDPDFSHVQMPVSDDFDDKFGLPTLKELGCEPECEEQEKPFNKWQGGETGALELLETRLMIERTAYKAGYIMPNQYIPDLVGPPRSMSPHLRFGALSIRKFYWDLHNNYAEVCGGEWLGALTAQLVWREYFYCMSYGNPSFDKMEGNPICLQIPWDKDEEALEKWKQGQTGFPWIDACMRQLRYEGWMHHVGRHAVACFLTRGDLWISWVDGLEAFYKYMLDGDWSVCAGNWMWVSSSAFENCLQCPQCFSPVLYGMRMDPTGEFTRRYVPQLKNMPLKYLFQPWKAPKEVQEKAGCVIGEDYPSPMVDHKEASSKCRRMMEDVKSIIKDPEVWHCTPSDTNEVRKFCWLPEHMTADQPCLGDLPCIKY
The description is as above. Conditions: both partners purified.

Turning to `Cc1cc2nc3c(=O)[nH]c(=O)nc-3n(C[C@H](O)[C@H](O)[C@H](O)COP(=O)(O)OP(=O)(O)OC[C@H]3O[C@@H](n4cnc5c(N)ncnc54)[C@H](O)[C@@H]3O)c2cc1C` [flavin adenine dinucleotide], the “cryo-EM structure of the complex, 2.6 A” value on PdLCry (L-CRY) [1] is recorded as “We observe a near stochiometric occupancy of the ligand FAD”. For the same molecule, the “UV/Vis spectroscopy of FAD photoreduction” value at PdLCry (L-CRY) [2] and on PdLCry (L-CRY) [3] was “both mutations lead to a less efficient FAD photoreduction under illumination conditions mimicking naturalistic sunlight” each time.

In test [4], “Platynereis dumerilii L-CRY (PdLCry), wildtype (natural protein)” showed a stoichiometry N of 2. In test [5], this molecule gave a percent of the protein present as a dimer of 80% and a stoichiometry N of 2. This molecule also displayed a percent of the protein monomeric in test [6] greater than 90%.

B1: PdLCry^Y352A (natural protein)
chain: MKEKMSAWEVGNGIMEEKTDDWDNKEDNGKEHVSLHWFRHGLRLHDNPALLKSLEGAKEFYALFIWDGEVAGTKLVSYPRMKFLLECLKDLDDSLKKHGGRLYVVKGPSDVVIKQLIEEWGVTRVTCEIDPEPIWQPRDKAVKDLCATKGVKWFDYNSHLLWDPKAVCDANGGRPPHTYKLFCQVTDLLGKPETPHPDPDFSHVQMPVSDDFDDKFGLPTLKELGCEPECEEQEKPFNKWQGGETGALELLETRLMIERTAYKAGYIMPNQYIPDLVGPPRSMSPHLRFGALSIRKFYWDLHNNYAEVCGGEWLGALTAQLVWREYFYCMSYGNPSFDKMEGNPICLQIPWAKDEEALEKWKQGQTGFPWIDACMRQLRYEGWMHHVGRHAVACFLTRGDLWISWVDGLEAFYKYMLDGDWSVCAGNWMWVSSSAFENCLQCPQCFSPVLYGMRMDPTGEFTRRYVPQLKNMPLKYLFQPWKAPKEVQEKAGCVIGEDYPSPMVDHKEASSKCRRMMEDVKSIIKDPEVWHCTPSDTNEVRKFCWLPEHMTADQPCLGDLPCIKY
modifications: FAD bound; dimer in dark / FAD bound; dimer in dark
B1: the “stoichiometry N” value with PdLCry^Y352A is 2.

B2: PdLCry^Y352D (natural protein)
chain: MKEKMSAWEVGNGIMEEKTDDWDNKEDNGKEHVSLHWFRHGLRLHDNPALLKSLEGAKEFYALFIWDGEVAGTKLVSYPRMKFLLECLKDLDDSLKKHGGRLYVVKGPSDVVIKQLIEEWGVTRVTCEIDPEPIWQPRDKAVKDLCATKGVKWFDYNSHLLWDPKAVCDANGGRPPHTYKLFCQVTDLLGKPETPHPDPDFSHVQMPVSDDFDDKFGLPTLKELGCEPECEEQEKPFNKWQGGETGALELLETRLMIERTAYKAGYIMPNQYIPDLVGPPRSMSPHLRFGALSIRKFYWDLHNNYAEVCGGEWLGALTAQLVWREYFYCMSYGNPSFDKMEGNPICLQIPWDKDEEALEKWKQGQTGFPWIDACMRQLRYEGWMHHVGRHAVACFLTRGDLWISWVDGLEAFYKYMLDGDWSVCAGNWMWVSSSAFENCLQCPQCFSPVLYGMRMDPTGEFTRRYVPQLKNMPLKYLFQPWKAPKEVQEKAGCVIGEDYPSPMVDHKEASSKCRRMMEDVKSIIKDPEVWHCTPSDTNEVRKFCWLPEHMTADQPCLGDLPCIKY
modifications: FAD bound; dimer in dark / FAD bound; dimer in dark
Consider B2, for which the “stoichiometry N” value with PdLCry^Y352D stood at 2.
